Patent US8722622B2, “FGF21 conjugates and anti-diabetic uses thereof” (COVX Technologies Ireland, Limited, priority 2010, dated 2014)
Read-outs that look alike come from different tables or passages of the source.

Key:
[1] = tested on: Glut1 mRNA expression in differentiated 3T3-L1 adipocytes; experiment: Glut1 Taqman assay; format: cell-based
Procedure: Differentiated 3T3-L1 adipocytes were used to measure the Glut1 mRNA expression by qPCR method. Overnight serum starved day 10-14 differentiated 3T3-L1 adipocytes were treated with compounds for 6 hrs. Total RNA was extracted from these cells, and Glut1 and GAPDH mRNA expression was measured using a Quantitect Probe RT-PCR kit and running a quantitative real time PCR reaction in a Taqman machine (Applied Biosystems®). The bioactivity of the compounds was determined by a fold change in Glut1 mRNA levels normalized by the GAPDH mRNA levels from each sample. EC50 values as measurements of the potency of the compounds were obtained from the dose response curves in the assay.
3T3-L1 adipocytes were seeded at day 8 in 24-well tissue culture plates (Falcon®, Cat#353047), and incubated in DMEM complete medium (10% FBS, 2 mM L-glutamine, 1% P/S) at 37° C., 5% CO2. […] The medium was aspirated, and then RNA extracted from the cells using the RNeasy mini Kit according to the manufacturer's instructions. RNA was measured at A260 nm using the Spectramax® Plus spectrophotometer.

[2] = tested on: obese insulin resistant (pre-diabetic) cynomolgus macaques; format: in vivo, Macaca fascicularis; details: 0.3 mg/kg QD
Procedure: […] adult cynomolgus monkeys (Macaca fascicularis) were included in the study. The monkeys (13 male, 11 female) were stratified into four treatment groups of 6 individuals, based on sex, body weight, and basal glycemic and lipid indices measured in a baseline plasma sample collected 2 weeks prior to the start of dosing. Animals were maintained on a high fat diet. Animals were dosed for 4 weeks followed by a 4 week washout period.
Blood samples were collected weekly during the dosing and washout periods, with the exception that no samples were collected at week 3 of washout. After an overnight fast (16-18 h), monkeys were sedated with ketamine 10-15 mg/kg by intramuscular (IM) injection. Body weights were recorded and blood (5 mL) was collected via percutaneous femoral venipuncture into ethylenediaminetetraacetic acid (EDTA) treated Vacutainer tubes pretreated with ˜1.8 trypsin inhibitor units (TIU) Aprotinin (Sigma 0.6 TIU per mL whole blood). Tubes were immediately placed on ice. Plasma was prepared by centrifugation, with the resulting plasma aliquoted and frozen at −80° C.
Data were treated in the same way for each pharmacodynamic endpoint. The baseline value for each individual monkey was subtracted from each timepoint to give a value corresponding to change from baseline. Changes from baseline values were averaged for each timepoint in each treatment group and standard error of the mean (SEM) calculated. Results are reported as mean change from baseline±SEM for each treatment group over the timecourse of the study. […] As there was no vehicle control group for the FGF21ΔH treated animals, the raw data and not the change from baseline value was used to assess statistical significance. In this case a student's T-test (two sided, paired sample) was carried out vs. baseline. […]
Plasma fructosamine was measured via an enzymatic colorimetric method using the Ace Alera Clinical Chemistry Analyzer using a kit from Roche Diagnostics®(Mannheim, Germany) according to manufacturer's instructions. […] Significant reduction in plasma fructosamine levels over time indicates improved glycemic control. […]
TPC levels were measured using enzymatic methods on the Ace Alera analyzer. There was a significant decrease in TPC after 1 week of treatment in all treatment groups (FIG. 9H).
TG levels were measured using enzymatic methods on the Ace Alera analyzer.
Non-esterified free fatty acids (FFA) were measured using enzymatic methods on a Roche Cobas® C311 clinical chemistry analyzer using protocols and reagents from Wako® (Wako Diagnostics, Richmond, Va.) according to manufacturer's instructions.
HDL levels were measured using enzymatic methods on the Ace Alera analyzer. There was no significant change in HDL cholesterol over the treatment period in any of the treatment groups.
LDL levels were measured using enzymatic methods on the Ace Alera analyzer.
TOTK were measured using enzymatic methods on a Roche Cobas® C311 clinical chemistry analyzer using protocols and reagents from Wako®.
Adiponectin levels were determined using a Mercodia® ELISA kit.
C-reactive protein (CRP) was measured using an ELISA kit from ALPCO Diagnostics® (Salem, N.H.) according to manufacturer's instructions. […] Levels trended back to baseline during the washout phase.
Leptin was measured by Luminex® technology (Millipore® catalogue number HMH-34K) with protocols and reagents according to manufacturer's instructions.
Adipsin levels were measured using and R&D Systems® (Minneapolis Minn.) human complement factor D Quantikine kit (catalogue number DFD00) according to manufacturer's instructions. […] The levels trended back towards baseline during the washout phase.

DIO mice = experiment: Mouse efficacy in high-fat diet-induced obese (DIO) mice; format: in vivo; details: day 10, 1 mg/kg QD
Procedure: (§1) The efficacy of FGF21 antibodies conjugates was evaluated in two murine obese insulin resistant models—ob/ob mice and high-fat diet-induced obese mice. For both models, male mice (6-8 weeks of age for ob/ob, 12-14 weeks of age for DIO with high-fat diet initiated at 6 weeks of age) were housed 2-4/cage and FGF21 antibody conjugates were administered by SC injection. Body weight was measured daily in the morning. Glucose tolerance was assessed by oral glucose tolerance test. Briefly, mice were fasted for 4-5 hrs in the morning of the day of testing. A basal blood sample was obtained and blood glucose levels were determined using a portable glucometer. Following basal sample, glucose was administered by oral gavage, and blood samples were drawn from 15 to 120 mins thereafter.
(§2) For […] expression, frozen visceral WAT samples collected from the in vivo efficacy studies were homogenized. Total RNA was extracted from the tissue homogenates, and Glut1 and GAPDH mRNA expression was measured using a Quantitect Probe RT-PCR kit and running a quantitative real time PCR reaction in a Taqman machine (Applied Biosystems). The effect of treatment was determined by a fold change in Glut1 mRNA levels normalized by the GAPDH mRNA levels from each sample.

ob/ob mice = experiment: Mouse efficacy in ob/ob mice (OGTT, body weight, liver, gene expression); format: in vivo
Procedure: as §1, §2

[3] = ob/ob mice liver, day 6, qPCR, 1 mg/kg QD

B1: FGF21ΔH: FGF21 with H1 absent (ΔH1), L146, SEQ ID NO:2; control protein (protein, listed as Homo sapiens)
chain: PIPDSSPLLQFGGQVRQRYLYTDDAQQTEAHLEIREDGTVGGAADQSPESLLQLKALKPGVIQILGVKTSRFLCQRPDGALYGSLHFDPEACSFRELLLEDGYNVYQSEAHGLPLHLPGNKSPHRDPAPRGPARFLPLPGLPPAPLEPPGILAPQPPDVGSSDPLSMVGPSQGRSPSYAS
[1]; 3T3-L1 adipocytes, 6 hrs, Taqman quantitative real-time PCR, read-out: Glut1 RNA expression EC50
  EC50: 3.39 nM
[1]; 6 hrs
  Glut1 induction in 3T3-L1 adipocytes: dose-dependent Glut1 induction
[1]; unconjugated protein, n in brackets, read-out: Glut1 Taqman unconjugated Protein EC50
  EC50: 2.3 nM
[2]
  LDL cholesterol: significant decrease in LDL cholesterol levels was only observed after 1 week of treatment
  non-esterified free fatty acids (FFA): significantly increased over the first 2 weeks of treatment
  plasma adiponectin: trended upwards
[2]; 4 weeks, vs baseline
  body weight: significant decrease in body weight
[2]; after 3 weeks
  plasma fructosamine: significantly reduced
[2]; dosing period
  triglycerides (TG): significant decrease in TG
[2]; first 3 weeks of treatment
  total ketone bodies (TOTK): significantly increased
[2]; not significant
  plasma leptin: decreased
[2]; significance only at 1 week washout
  plasma C-reactive protein (CRP): decreased
DIO mice
  Body weight change from day −1: −1.6
  Glucose AUC during OGTT: 75
  Mean values of serum lipids NEFA: 0.40 mM
  Mean values of serum lipids TG: 92 mg/dL
  UCP1 mRNA expression in WAT: 1.38
ob/ob mice; 1 mg/kg Qd (FGF21dH protein)
  GTT* (% AUC of Ctrl): 67 % AUC of Ctrl
ob/ob mice; [3]
  Mean fold changes of mRNA expression, FoxA2: 1.23 fold
  Mean fold changes of mRNA expression, MOGAT2: 0.37 fold
  Mean fold changes of mRNA expression, SCD1: 0.95 fold
ob/ob mice; ob/ob mice, OGTT day 6, 1 mg/kg QD
  Mean Glucose AUC (% of vehicle control): 61 % of vehicle control
ob/ob mice; ob/ob mice, day 6, 1 mg/kg QD
  Body weight change from day −1: 4.7
  Glucose AUC during OGTT: 67
  Liver Weight: 1.8 g
  Triglycerides content in liver: 37.0
  UCP1 mRNA expression in WAT: 2.6
ob/ob mice; ob/ob mice, single SC dose 0.6 mg/kg (FIG. 4A)
  Mean Glucose AUC (% of vehicle control) during OGTT: 103 % of vehicle control
ob/ob mice; ob/ob mice, single SC dose 0.6 mg/kg (FIG. 5A)
  Cumulative body weight change, mean body weight: 3.2 g
ob/ob mice; ob/ob mice, single SC dose 0.6 mg/kg (FIG. 5B)
  mean liver weight: 2.4 g
ob/ob mice; ob/ob mice, single SC dose 1 mg/kg (FIG. 5A)
  Cumulative body weight change, mean body weight: 2.5 g
ob/ob mice; ob/ob mice, single SC dose 1 mg/kg (FIG. 5B)
  mean liver weight: 2.2 g
ob/ob mice; ob/ob mice, single SC dose 1 mg/kg (FIGS. 4A, 4B)
  Mean Glucose AUC (% of vehicle control) during OGTT: 74 % of vehicle control
ob/ob mice; ob/ob mice, single dose, dose not printed (FIG. 6A)
  Cumulative body weight change, mean body weight: 1.9 g
ob/ob mice; ob/ob mice, single dose, dose not printed (FIG. 6B)
  mean glucose AUC % during OGTT: 63%
